Test [1] addresses N-CoRNID labelled with Atto647N (mouse) (UniProt Q60974). In words: MST.
The target is the same in test [2]. In words: MST. This is another data set of the same source.
Test [3] deals with N-CoRNID, nuclear receptor interaction domain of N-CoR (Gln2059 to Glu2325) (mouse) (UniProt Q60974). In words: SAXS.
Test [4] shares this target. Nature of the test: AUC + other: RPLC-UV/MS.
In test [5] the target is fluorescent peptide CoRNR1 of N-CoR. Nature of the test: fluorescence polarisation. In general terms: Fluorescence polarisation rises when a labelled molecule tumbles more slowly, as on binding a larger partner.
The target of test [6] is fluorescent peptide CoRNR2 of N-CoR. In words: fluorescence polarisation.
In test [7] the target is T1, RXR (RXRα ligand-binding domain) (mouse, UniProt P28700 227-467).
T1 sequence (looked up): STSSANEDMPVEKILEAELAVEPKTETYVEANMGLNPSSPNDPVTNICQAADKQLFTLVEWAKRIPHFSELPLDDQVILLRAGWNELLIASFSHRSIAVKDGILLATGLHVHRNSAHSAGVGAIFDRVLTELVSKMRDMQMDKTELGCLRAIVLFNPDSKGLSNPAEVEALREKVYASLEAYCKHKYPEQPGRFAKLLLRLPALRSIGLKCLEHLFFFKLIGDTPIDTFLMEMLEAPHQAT
In words: AUC + other: RPLC-UV/MS.

Test [8] has as its target T1, RXR (RXRα ligand-binding domain). Nature of the test: fluorescence polarisation.

Where two headings read alike, the source gives them in different places. Ends that are not written are not given here. fluorescein = fluorescein label at the N-terminus of the peptide

A word on the Kd: it is the free concentration of one partner at which half of the binding sites on the other are occupied at equilibrium, for simple one-to-one binding. One may read the stoichiometry N as a count of units in the complex or per binding partner.

N-CoRNID labelled with Atto647N (mouse), sequence (Q60974 2059-2325): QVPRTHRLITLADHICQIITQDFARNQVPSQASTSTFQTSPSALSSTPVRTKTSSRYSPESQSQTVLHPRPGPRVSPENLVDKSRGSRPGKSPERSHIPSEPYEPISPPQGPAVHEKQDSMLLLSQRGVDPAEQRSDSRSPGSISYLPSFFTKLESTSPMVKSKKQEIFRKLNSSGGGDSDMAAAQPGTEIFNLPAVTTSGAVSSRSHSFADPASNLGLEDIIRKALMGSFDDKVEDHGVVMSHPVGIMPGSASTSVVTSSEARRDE
N-CoRNID, nuclear receptor interaction domain of N-CoR (Gln2059 to Glu2325) (mouse), sequence (Q60974 2059-2325): as above

Regarding “RXR/RARI396E heterodimer (mRXRα/hRARαI396E) (from UniProt P28700 1-467; P10276 1-462) (complex)”, the Kd in test [1] came to 4.42 µM. This lies in the single-digit micromolar range.

Take “RXR/RAR heterodimer (mRXRα/hRARα), ligand-binding domains (from UniProt P28700 1-467; P10276 1-462) (complex)”: the Kd was 0.21 µM in test [1], 8.6 µM in test [2], 1.68 µM in test [5] and 1.47 µM in test [6]. This molecule also came in with a population of unbound species in test [3] of 51%. The stoichiometry N in test [4] came to 1.

B1: RAR (RARα ligand-binding domain) (domain or fragment, human, UniProt P10276 176-421, looked up)
chain: ESYTLTPEVGELIEKVRKAHQETFPALCQLGKYTTNNSSEQRVSLDIDLWDKFSELSTKCIIKTVEFAKQLPGFTTLTIADQITLLKAACLDILILRICTRYTPEQDTMTFSDGLTLNRTQMHNAGFGPLTDLVFAFANQLLPLEMDDAETGLLSAICLICGDRQDLEQPDRVDMLQEPLLEALKVYVRKRRPSRPHMFPKMLMKITDLRSISAKGAERVITLKMEIPGSMPPLIQEMLENSEGLD
For the molecule B1, in test [7], the “stoichiometry N” value was 1.

B2: fluorescent peptide CoRNR2 of N-CoR (peptide)
peptide: fluorescein-DPASNLGLEDIIRKALMGSFD
In turn, B2 gave a Kd in test [8] of 22.5 µM.

These data come from doi:10.1101/452482 (bioRxiv, 2018).
